For experiment [1], the target named is HCV NS3 fragment 1190-1216 (…) (Hepatitis C virus). The experiment is described as follows: flow cytometry titration on yeast displaying the NS3 1190-1216 fragment. For orientation: A flow cytometer gives signals particle by particle.
Experiment [2] deals with HCV NS4 fragment 1692-1713 (…) (Hepatitis C virus). The experiment can be described thus: flow cytometry titration on yeast displaying the NS4 1692-1713 fragment.
Experiment [3] addresses wildtype HCV core 27-39 fragment (…) (Hepatitis C virus). The experiment is described as follows: flow cytometry titration on yeast displaying the core 27-39 fragment (apparent KD).

Among the data in patent publication US20110263436A1 are Kd values, retold here.

B1: anti-HCV NS3 chimeric antibody (HCV NS3 CHO 17-903-132sc171) (antibody, V domains shown)
VH: EVKLVESGGGLVQPGGSLKLSCATSGFTFSDYYMYWVRQTPEKRLEWAAYISNGAGSTYYPDTVKGRFTISRDNAKNTLYLQMSRLKSEDTAMYYCARGLWDGLDYWGQGTTLTVSS
VL: DVVMAQTPLSLPVSLGDQASISCRSSQSLVHSNGNTYLHWYLQRPGQSPKLLIYKVSNRFSGVPDRFSGSGSGTDFTLKISRVEAEDLGVYFCSQSTHVPYTFGGGTKLEIKR
The molecule B1 gave a Kd in experiment [1] of 68 nM.

B2: anti-HCV NS4 chimeric antibody (HCV NS4 CHO E99H6C34sc203) (antibody, V domains shown)
VH: QIQLVQSGPELKKPGETVKISCKASGYTFTDYSMHWVNQAPGKGLKWMGWINTETGEPTYADDFKGRFAFSLETSASTAYLQINNLKNEDTATYFCTRGGTGYWGQGTTLTVSS
VL: DVVMTQTPLSLPVSLGDQASISCRSSQSLVYSNGNTYLHWYLQKPGQSPKLLIYKVSNRFSGVPDRFSGSGSGTDFTLKISRVEAEDLGVYFCSQSTHVPWTFGGGTKLEIKR
Regarding B2, in experiment [2], the Kd turned out to be 0.5 nM.

B3: anti-HCV core chimeric antibody (HCV core 201-603-486-333) (antibody, V domains shown)
VH: QIQLVQSGPELQKPGKTVKISCKTSGYTFTDYPMHWVKQAPGKGLKWMGWINTETGEPTRVDDFKGRFAFSLETSASTAYLQINNLKDEDTATYFCARGGGVRRQVMDYWGQGTSVTVSS
VL: DIVMSQSPSSLAVSAGEKVTMSCKSSQSLLNSRTRKNYLVWYQQKPGQSPKLLIYWASTRDSGVPDRFTGSGSGTDFTLTISSVQAEDLAVYYCKQSYNLYTFGGGTKLEIKR
Consider B3, for which, in experiment [3], the Kd amounted to 0.7 nM.
